Laboratory results published in doi:10.1101/2022.01.28.478199 (bioRxiv, 2022).
Values joined by “and” are separate entries in the source; they are usually repeats but may differ in a detail not shown here. Equal entries are not always repeated.

Assays:
native gel or EMSA = biological target: the molecule itself; experiment: native gel or EMSA
SEC = biological target: the molecule itself; experiment: SEC

Row | Protein | stoichiometry N (native gel or EMSA) | stoichiometry N (SEC)
1 | Hsp78-6xHis (wild-type Hsp78 with a C-terminal 6x polyhistidine-tag) (natural protein) not shown | 3 and 6 | –
2 | WT Hsp78 expressed and affinity purified from E. coli (natural protein) not shown | – | 2 and 3
